Data on 49 molecules can be found in US20170096461A1 (IMMATICS BIOTECHNOLOGIES, published 2017).

Where only a bound is given, the exact number is not on record here.

The target in the assay is T1, HLA-A*02:01 (peptide-receptive MHC class I monomer after UV-ligand exchange) (human).
T1 construct: Monomers made with a UV-sensitive peptide that is cleaved by UV and exchanged for the test peptide; captured on streptavidin plates; also called MHC molecules
The assay can be described thus: UV-ligand exchange + anti-b2m ELISA; exchange yield grade: + >=10%, ++ >=20%, +++ >=50, ++++ >=75%. The source says: Candidate peptides for T cell based therapies according to the present invention were further tested for their MHC binding capacity (affinity). The individual peptide-MHC complexes were produced by UV-ligand exchange, where a UV-sensitive peptide is cleaved upon UV-irradiation, and exchanged with the peptide of interest as analyzed. Only peptide candidates that can effectively bind and stabilize the peptide-receptive MHC molecules prevent dissociation of the MHC complexes. To determine the yield of the exchange reaction, an ELISA was performed based on the detection of the light chain (β2m) of stabilized MHC complexes. The assay was performed as generally described in Rodenko et al. (Rodenko et al., 2006).
96 well MAXISorp plates (NUNC) were coated over night with 2 ug/ml streptavidin in PBS at room temperature, washed 4× and blocked for 1 h at 37° C. in 2% BSA containing blocking buffer. Refolded HLA-A*02:01/MLA-001 monomers served as standards, covering the range of 15-500 ng/ml. Peptide-MHC monomers of the UV-exchange reaction were diluted 100 fold in blocking buffer. Samples were incubated for 1 h at 37° C., washed four times, incubated with 2 ug/ml HRP conjugated anti-β2m for 1 h at 37° C., washed again and detected with TMB solution that is stopped with […]. Absorption was measured at 450 nm. Candidate peptides that show a high exchange yield (preferably higher than 50%, most preferred higher than 75%) are generally preferred for a generation and production of antibodies or fragments thereof, and/or T cell receptors or fragments thereof, as they show sufficient avidity to the MHC molecules and prevent dissociation of the MHC complexes.
For orientation: An ELISA detects its analyte on a solid surface through an enzyme-linked reagent.

Turning to KAIGSLKEV [peptide KAIGSLKEV (SEQ ID NO: 72)], the peptide exchange yield lay within 50 to 75%.
Turning to KVIDYVPGI [peptide KVIDYVPGI (SEQ ID NO: 86)], the peptide exchange yield lay in the range of 50 to 75%.
As to ALRETVVEV [peptide ALRETVVEV (SEQ ID NO: 93)], the peptide exchange yield was 50 to 75%.
As to AAAPGEALHTA [peptide AAAPGEALHTA (SEQ ID NO: 9)], the peptide exchange yield lay within 20 to 50%.
As for SLQSLIISV [peptide SLQSLIISV (SEQ ID NO: 5)], the peptide exchange yield was at least 75%.
On to VMLPIGAVVMV [peptide VMLPIGAVVMV (SEQ ID NO: 62)], for which the peptide exchange yield is 50 to 75%.
With KLLEIDIDGV [peptide KLLEIDIDGV (SEQ ID NO: 83)], the peptide exchange yield is 50 to 75%.
TLVDNISTMAL [peptide TLVDNISTMAL (SEQ ID NO: 90)]: the peptide exchange yield is 50 to 75%.
To ILASFMLTGV [peptide ILASFMLTGV (SEQ ID NO: 52)] belongs at least 75%.
To RLLEPAQVQQL [peptide RLLEPAQVQQL (SEQ ID NO: 79)] belongs 50 to 75%; to LLQNNLPAV [peptide LLQNNLPAV (SEQ ID NO: 87)], at least 75%; to TLHRETFYL [peptide TLHRETFYL (SEQ ID NO: 88)], at least 75%.
ALSSVIKEL [peptide ALSSVIKEL (SEQ ID NO: 82)]: the peptide exchange yield lay in the range of 50 to 75%.
Regarding VMYDLITEL [peptide VMYDLITEL (SEQ ID NO: 65)], the peptide exchange yield fell in the range of 50 to 75%.
The result for FAYDGKDYLTL [peptide FAYDGKDYLTL (SEQ ID NO: 85)] reads 50 to 75%; that for ILMDPSPEYA [peptide ILMDPSPEYA (SEQ ID NO: 80)], 50 to 75%.
On to KLQDGVHII [peptide KLQDGVHII (SEQ ID NO: 91)], for which the peptide exchange yield lay in the range of 50 to 75%.
In the case of LLIADNPQL [peptide LLIADNPQL (SEQ ID NO: 55)], the peptide exchange yield is at least 75%.
In the case of AIIDGKIFCV [peptide AIIDGKIFCV (SEQ ID NO: 77)], the peptide exchange yield was 50 to 75%.
The result for IQHDLIFSL [peptide IQHDLIFSL (SEQ ID NO: 89)] reads 50 to 75%; that for LLAEIGAVTLV [peptide LLAEIGAVTLV (SEQ ID NO: 81)], 50 to 75%.
To VLFHQLQEI [peptide VLFHQLQEI (SEQ ID NO: 64)] belongs 50 to 75%; to VVSGATETL [peptide VVSGATETL (SEQ ID NO: 60)], at least 75%.
To FLFPVYPLI [peptide FLFPVYPLI (SEQ ID NO: 68)] belongs 50 to 75%; to ALFPVAEDISL [peptide ALFPVAEDISL (SEQ ID NO: 94)], 50 to 75%.
With RIIDPEDLKALL [peptide RIIDPEDLKALL (SEQ ID NO: 78)], the peptide exchange yield is at least 75%.
Turning to TLLWKLVEV [peptide TLLWKLVEV (SEQ ID NO: 70)], the peptide exchange yield lay in the range of 20 to 50%.
As for YQAPYFLTV [peptide YQAPYFLTV (SEQ ID NO: 61)], the peptide exchange yield lay within 50 to 75%.
Take KLFAIPILL [peptide KLFAIPILL (SEQ ID NO: 11)]: the peptide exchange yield lay within 50 to 75%.
In the case of ILDEAGVKYFL [peptide ILDEAGVKYFL (SEQ ID NO: 51)], the peptide exchange yield was 50 to 75%.
As to GLLGDIAIHL [peptide GLLGDIAIHL (SEQ ID NO: 7)], the peptide exchange yield lay within 50 to 75%.
Take KMFENEFLL [peptide KMFENEFLL (SEQ ID NO: 84)]: the peptide exchange yield lay in the range of 50 to 75%.
For LLSEEHITL [peptide LLSEEHITL (SEQ ID NO: 53)], the peptide exchange yield was at least 75%.
As to KLFDRSVDL [peptide KLFDRSVDL (SEQ ID NO: 69)], the peptide exchange yield lay in the range of 20 to 50%.
Consider LLMSTENEL [peptide LLMSTENEL (SEQ ID NO: 63)], for which the peptide exchange yield fell in the range of 50 to 75%.
Regarding VLLNINGIDL [peptide VLLNINGIDL (SEQ ID NO: 58)], the peptide exchange yield is at least 75%.
Consider SLDLHVPSL [peptide SLDLHVPSL (SEQ ID NO: 75)], for which the peptide exchange yield is 50 to 75%.
For FLDSLSPSV [peptide FLDSLSPSV (SEQ ID NO: 74)], the peptide exchange yield is 50 to 75%.
The result for VLLSGLTEV [peptide VLLSGLTEV (SEQ ID NO: 59)] reads at least 75%.
Regarding SIMDYVVFV [peptide SIMDYVVFV (SEQ ID NO: 6)], the peptide exchange yield was at least 75%.
On to FLLSQIVAL [peptide FLLSQIVAL (SEQ ID NO: 50)], for which the peptide exchange yield lay within 50 to 75%.
As to VLIGDVLVAV [peptide VLIGDVLVAV (SEQ ID NO: 57)], the peptide exchange yield is at least 75%.
Consider SLSSYTPDV [peptide SLSSYTPDV (SEQ ID NO: 73)], for which the peptide exchange yield is 50 to 75%.
Take SLFSQMGSQYEL [peptide SLFSQMGSQYEL (SEQ ID NO: 56)]: the peptide exchange yield fell in the range of 50 to 75%.
With YLQDYTDRV [peptide YLQDYTDRV (SEQ ID NO: 92)], the peptide exchange yield lay within 50 to 75%.
To HLFDIILTSV [peptide HLFDIILTSV (SEQ ID NO: 54)] belongs at least 75%.
To MLYDIVPVV [peptide MLYDIVPVV (SEQ ID NO: 67)] belongs 50 to 75%; to YLNLISTSV [peptide YLNLISTSV (SEQ ID NO: 66)], 50 to 75%.
Regarding FIFEQVQNV [peptide FIFEQVQNV (SEQ ID NO: 71)], the peptide exchange yield is 50 to 75%.
